We go through four molecules from patent US20180346592A1 (MOGAM INSTITUTE FOR BIOMEDICAL RESEARCH, published 2018).

The target in assay [1] is T1, GPC3 on the surface of hepatic cancer cell lines (SK-Hep1-GPC3 transfectant, HepG2, Huh7, Hep3B, SNU398) (human, UniProt P51654 25-554).
T1 construct: Species is not restated for the cells (hepatic cancer cell lines, or SK-Hep1 transfected with pCMV/GPC3); also called glypican 3
As to the kind of experiment: FACS, HepG2 cells, 1 ug antibody; lower right panel.

Assay [2] concerns the target T1, GPC3 on the surface of hepatic cancer …. As to the kind of experiment: FACS, SK-Hep1-GPC3 cells, 1 ug antibody; lower right panel. How it is done:
(§1) After detaching SK-Hep1-GPC3 cells by adding a TrypLE Express solution thereto, the detached SK-Hep1-GPC3 cells were put into a 50 mL tube and centrifuged at room temperature and 2000 rpm for 3 minutes to remove a culture medium, followed by washing with PBS once. The resultant was suspended using a FACS buffer, transferred to a round bottom tube, and centrifuged at room temperature and 2000 rpm for 3 minutes. A supernatant was removed, and the resultant was suitably dissolved using the FACS buffer so as to have a concentration of 4×10⁵ ea/mL. Then, a candidate antibody (1 μg) was added thereto at 4° C., and in an […] control group, a human IgG (1m, Sigma) was added instead of the candidate antibody. After 1 hour, the resultant was washed with the FACS buffer two times, a goat anti-human IgG antibody and FITC conjugated were added thereto at an amount of 1 μL per sample and bound thereto at 4° C. for 30 minutes. After collecting cells by centrifugation at 2000 rpm for 3 minutes, the cells were re-suspended by adding a fixation buffer (500 μL), and measured using a FACS calibur (FIG. 5).
A general note: In flow cytometry, cells or beads pass a laser one at a time.

Assay [3] concerns the target T2, recombinant human GPC3 (Cat. No. 2119-GP-050, R&D systems) purified from HEK293 cells (human, UniProt P51654 25-559).
T2 construct: Bought protein
As to the kind of experiment: SPR, Biacore T-200, GPC3 immobilised on CM5 chip, antibody flowed 0.078-5 nM. How it is done: Quantitative binding capacity (affinity) of GX102 and GX270 clone antibodies, purified anti-GPC3 antibodies, to recombinant human GPC 3 was measured using a Biacore T-200(GE Healthcare, U.S.) biosensor. After immobilizing GPC3 (Cat. No. 2119-GP-050, R&D systems) purified from HEK293 cells onto a CM5 chip (GE Healthcare) to an Rmax of 200 using an amine-carboxyl reaction, the GX102 or GX270 antibody sequentially diluted in a HBS-EP buffer solution (10 mM HEPES, pH7.4, 150 mM NaCl, 3 mM EDTA, 0.005% surfactant P20) was flowed at a flow rate of 30 μL/min in a concentration range of 0.078 nM to 5 nM for an association time of 120 seconds and a dissociation time of 1800 seconds. Dissociation of the antibody bound to GPC3 was induced by flowing 10 mM Glycine-HCl (pH1.5) at a flow rate of 30 μL/min for 30 seconds (Table 3). Affinity was obtained as kinetic rate constants (Kₒₙ and Koff) and an equivalent dissociation constant (KD) using a Biacore T-200 evaluation software (Table 4).
On the technique in general: Surface plasmon resonance follows binding to a sensor surface in real time, without labels.

Assay [4] has as its target T1, GPC3 on the surface of hepatic cancer …. The assay is described as follows: FACS, SK-Hep1-GPC3 #9 cells, 1 ug antibody; lower left panel. How it is done: as §1
The target is the same in assay [5]. The assay is described as follows: FACS, HepG2 cells, 1 ug antibody; lower left panel (Human naive library).

B1: GX270 clone antibody (purified anti-GPC3 antibody) (antibody, V domains shown)
VH: QVQLVQSGAEVKKPGASVKVSCKTSGYTFTSSYMHWVRQAPGQGLEWMGIINPNSRGTNYAQKFQGRVTMTSDTSISTAYMELSSLISDDTAVYYCASSSGDYPDYWGQGTLVTVSS
VL: SYELTQPPSVSVSPGQTARIACSGDALPKHYAYWYQQKSGQAPVLVVYEDKKRPAGIPERFSGSSSGTVATLTISGAQVEDEAHYYCYSTDTSGNHRVFGGGTKLTVLG
notes: Purified antibody; also called GX270 antibody; GX270 candidate antibody
For the molecule B1, the “Mean, FL2-H” value is 14.5 in assay [1] and 174 in assay [2]. Moreover, in assay [3], the Kd was 0.07 nM.

B2: GX102 clone antibody (purified anti-GPC3 antibody) (antibody, V domains shown)
VH: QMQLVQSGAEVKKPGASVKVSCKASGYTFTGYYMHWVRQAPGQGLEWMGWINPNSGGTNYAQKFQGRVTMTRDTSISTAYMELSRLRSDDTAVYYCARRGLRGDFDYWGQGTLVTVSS
VL: GQSVLTQPPSASETPGQKVTISCSGSSSNIGTNHVFWYQQLPGTAPKLLIYRNNLRPSGVPDRFSGSKSGTSASLAISGLRSEDEADYYCAAWDDSLSWVFGGGTKLTVLG
notes: Purified antibody; also called GX102 antibody; GX102 candidate antibody
Turning to B2, the “Mean, FL2-H” value was 18.7 in assay [1] and 317 in assay [2]. Further, the Kd in assay [3] came out at 0.0092 nM.

B3: clone GX122 (scFv, V domains shown)
VH: EVQLVESGAEVKKPGASVKVSCKASGYTFTSYYMHWVRQAPGQGLEWMGIINPSGGSTSYAQKFQGRVTMTRDTSTSTVYMELSSLRSEDTAVYYCARDGGSSPDIWGQGTMVTVSS
VL: SYELTQPPSVSVSPGQTARITCSGDALPKKYAYWYQQKSGQAPVLVIYEDKKRPSEIPERFSGSSSGTMATLTITGAQVDDEADYYCYSIDRSGSRGVFGGGTKLTVLG
notes: scFv library clone tested as culture supernatant
Consider B3, for which the “Mean, FL2-H” value in assay [4] was determined as 11.6; in assay [5] it was 52.2.

B4: clone GN337 (scFv, V domains shown)
VH: EVQLVESGPGLVKPSQTLSLTCTVSGGSVSSGGYHWNWIRQHPGKGLEWIGYIFNSGNTDYNPSLRSRLTISQDTSKNQFSLKLSSVTAADTAVYYCARHRSRLLRWFDYWGQGTMVTVSS
VL: DVVLTQSPSSLSAFVGDRVTITCQASQDIRKYLNWFQQKPGKAPKLLIYDASTLETGVSSRFSGSGSGTHFNLVISSLEPEDSATYYCQQHDFVPRTFGQGTKLEIKR
notes: as for B3
B4: the “Mean, FL2-H” value in assay [4] was 3.81; in assay [5] it was 30.8.

As usually defined, the Kd is a measure of binding affinity in units of concentration.
